Patent publication US20130053541A1, “METHODS FOR DISCOVERING MOLECULES THAT BIND TO PROTEINS” (LYNNTECH, INC., priority 2011, published 2013)
Where no end group is shown, it is not given here.

T1: native human ESRRG protein (Homo sapiens, UniProt P62508)
T1 sequence (P62508 1-458): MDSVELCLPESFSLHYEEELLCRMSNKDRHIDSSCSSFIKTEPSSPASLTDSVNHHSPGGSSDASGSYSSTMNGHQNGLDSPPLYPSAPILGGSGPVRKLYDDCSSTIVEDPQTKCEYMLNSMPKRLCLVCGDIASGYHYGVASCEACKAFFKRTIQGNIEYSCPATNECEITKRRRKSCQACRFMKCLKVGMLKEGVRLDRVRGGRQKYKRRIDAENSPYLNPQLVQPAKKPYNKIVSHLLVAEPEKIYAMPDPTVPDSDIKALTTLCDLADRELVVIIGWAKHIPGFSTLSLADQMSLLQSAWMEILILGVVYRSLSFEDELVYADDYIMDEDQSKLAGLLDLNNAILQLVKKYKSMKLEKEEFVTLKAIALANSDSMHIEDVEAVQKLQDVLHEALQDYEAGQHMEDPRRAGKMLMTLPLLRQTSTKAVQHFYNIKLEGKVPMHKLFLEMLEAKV

T2: native human ESRRG protein (Estrogen-receptor related receptor gamma) (human, UniProt P62508 229-458, limits assumed)
T2 construct: the screened protein is called 'native human ESRRG protein'; also called ESSRG; ERRγ
T2 sequence (looked up): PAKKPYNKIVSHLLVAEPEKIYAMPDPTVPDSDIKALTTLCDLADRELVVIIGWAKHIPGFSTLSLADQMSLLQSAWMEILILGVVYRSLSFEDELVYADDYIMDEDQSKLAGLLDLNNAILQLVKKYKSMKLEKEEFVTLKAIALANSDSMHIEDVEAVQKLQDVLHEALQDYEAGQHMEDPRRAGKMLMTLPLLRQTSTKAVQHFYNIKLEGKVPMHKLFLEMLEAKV


What follows are molecules tested against T1, native human ESRRG protein (assay: peptide microarray screening for ESRRG binding (Iteration 1 and 2)). Conditions: Iteration 2 iterative screen; fluorescence intensity units.
Description: The BLOSUM62 matrix was divided into Tiers based, with Tier 1 comprising “most conserved” (lowest penalty) and Tier 3 comprising “least conserved” (highest penalty) mutations observed in nature. Sequences for microarray production for the primary stage (Iteration 1) of screening for protein binding were created by permuting AA positions 4 and/or 5 only (i.e., core of sequence) of parent 8-mer peptides using Tier 1 and Tier 3 substitutions. This allows the systematic variation of the sequence in order to identify the most important motif within the larger candidate ligand sequence that is needed for binding the target protein. All peptides on the array were grown from the C→N terminal, with the exposed N-terminal amino acid masked by an acetyl group to prevent folding of the sequence and enable full presentation of the peptide to its target protein.
(§1) Screening was carried out typically by hybridization of the protein (1 μg/mL) against the array for 1 h at 4° C.; detection of bound protein was carried out using a fluorescently labeled anti-ESRRG mAb. (Direct labeling of ESRRG and alternative detection strategies are equally valid).
Highest binders (based on relative fluorescence signal) were selected and iteratively sequence expanded and arrayed (Iteration 2); and ESRRG binding sequences were selected as above. For iterative arrays, the core positions (AA 4 and 5) were kept unchanged while the outer amino acids (2, 3, 6, and/or 7) were permuted using Tier 3 substitutions.
Daughter candidate ligands and their new Tier 3 and/or Tier 1 based combinations were synthesized in situ on an addressable peptide microarray and screened against native human ESRRG protein in order to determine sequences that bind to this protein. Bound protein was detected by a fluorescently labeled anti-ESRRG mAb. Results are obtained in fluorescence intensity units which were used to rank the peptide ligands. Excess (100×) competing biological matrices (human serum, HSA/BSA or bacterial protein extract) were used as backgrounds to select for specific ligands to the protein. Other competing proteins can be added to background for specificity selection and directed evolution of ligands.
Iterative sequence expansion and arraying of 10 highest binding ligands to ESRRG from Iteration 1 was carried out and the new peptide sequences were synthesized on an array and screened against the protein, as described above. In this step, the central 2 amino acids (core) in peptide sequences were maintained unchanged while outlying amino acids (2, 3, 6, and 7) were permuted (using Tier 1 and Tier 3 substitutions) in a ‘cipher’ or ‘combination’ lock approach. Further affinity maturation of sequence was observed, with multifold enhancement in binding signal of Iteration 2 sequences (i.e., Granddaughters) compared to their respective parents from Iteration 1 (i.e., Daughters) on the same array.

Molecule | Sample A (Bkgd) Signal | Sample B (Probe) Signal
FFKGHFKF | 543.19 | 5,435.29
PFKLKQGN | 1,523.23 | 6,982.96
RLLHYGSY | 290.67 | 1,203.13
LFKLKQND | 366.58 | 1,857.96
VLLHYGLY | 347.96 | 1,796.19
DNNYLLLL | 156.87 | 2,242.02
WRSYPRRA | 619.96 | 2,611.56
LFKLKQDG | 277.71 | 2,776.37

The remaining lines, values ahead:

Sample A (Bkgd) Signal | Sample B (Probe) Signal | Molecule
805.42 | 19,001.58 | HRSYPRRG
238.31 | – | FVNFSLGI
115.25 | – | AFNMYLDE
209.87 | 2,464.29 | TGKLKQDG
292.56 | 2,198.94 | WNSYPRND
143.58 | – | HNSYPRNE
115.46 | – | AHNYLLEH
494.92 | 2,451.98 | HRSYPRVY
470.56 | 13,817.90 | NFNYLLPH
553.79 | 3,049.48 | GKSYPRHR
182.90 | 2,860.10 | WANYLLPP
251.75 | 1,558.62 | FYNMYLLN
230.42 | 1,455.83 | FWKGHFDF

Each molecule was assayed against T2, native human ESRRG protein … (assay: peptide microarray, Iteration 2; bound ESRRG detected with fluorescent anti-ESRRG mAb). Conditions: not given.
Experimental: as §1
Iterative sequence expansion and arraying of 10 highest binding ligands to ESRRG from Iteration 1 was carried out and the new peptide sequences were synthesized on an array and screened against the protein, as described above. In this step, the central 2 amino acids (core) in peptide sequences were maintained unchanged while outlying amino acids (2, 3, 6, and 7) were permuted (using Tier 1 and Tier 3 substitutions) in a ‘cipher’ or ‘combination’ lock approach.

Molecule | Sample B (Probe) Signal | log2 (Sample B/Sample A)
Ac-NFNYLLPH | 13800 fluorescence intensity units | 4.88
Ac-EDSYPRDG | 5020 fluorescence intensity units | 4.08
Ac-DINFSLGI | 4800 fluorescence intensity units | 4.9
Ac-PDSYPRWG | 5590 fluorescence intensity units | 4.27
Ac-WIKLKQND | 2340 fluorescence intensity units | 3.69
Ac-DNNYLLLL | 2240 fluorescence intensity units | 3.84
Ac-NNNFSLHM | 4370 fluorescence intensity units | 4.45

Second part, the molecule after the results:

Sample B (Probe) Signal | log2 (Sample B/Sample A) | Molecule
2860 fluorescence intensity units | 3.97 | Ac-WANYLLPP
2300 fluorescence intensity units | 3.41 | Ac-NLLLKHPD
19000 fluorescence intensity units | 4.56 | Ac-HRSYPRRG
2420 fluorescence intensity units | 3.47 | Ac-LFLLQQDD
7240 fluorescence intensity units | 6.47 | Ac-HDNMYLNE
2460 fluorescence intensity units | 3.55 | Ac-TGKLKQDG
